Test results published in patent US20240100152A1 (UNIVERSITY OF PITTSBURGH OF THE COMMONWEALTH SYSTEM OF …, published 2024).

Target: T1, human α7 nicotinic acetylcholine receptor (α7nAChR) expressed on HEK293T/17 cells (human, UniProt P36544 23-502)
T1 construct: whole, on cells
Test: live-cell fluorescent labeling of transfected HEK293 cells

T1 sequence (P36544 23-502): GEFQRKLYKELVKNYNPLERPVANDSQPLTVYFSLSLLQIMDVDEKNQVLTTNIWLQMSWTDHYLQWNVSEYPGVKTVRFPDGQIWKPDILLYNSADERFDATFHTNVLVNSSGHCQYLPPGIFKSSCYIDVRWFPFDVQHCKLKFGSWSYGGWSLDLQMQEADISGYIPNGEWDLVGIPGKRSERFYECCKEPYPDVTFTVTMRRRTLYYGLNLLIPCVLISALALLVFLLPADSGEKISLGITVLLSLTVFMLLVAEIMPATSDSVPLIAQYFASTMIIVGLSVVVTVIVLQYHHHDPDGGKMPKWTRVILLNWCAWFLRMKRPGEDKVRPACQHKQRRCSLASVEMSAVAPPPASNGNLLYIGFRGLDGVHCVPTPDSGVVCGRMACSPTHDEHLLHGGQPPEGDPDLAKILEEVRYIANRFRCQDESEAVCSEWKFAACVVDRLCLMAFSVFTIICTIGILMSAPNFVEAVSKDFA

B1: α-bungarotoxin Alexa Fluor 594 conjugate (ligand)
chain: IVCHTTATSPISAVTCPPGENLCYRKMWCDAFCSSRGKVVELGCAATCPSKKPYEEVTCCSTDKCNPHPKQRPG
Q: Does B1 bind?
A: binds
